Experimental data as given in US20140322218A1 (Amgen, published 2014).

Target: T1, muCDH19(44-461)::huCDH19(464-772), Flag-tagged, on 293T cells (human/mouse chimera)
T1 construct: also called Hu EC5; C137915
T1 chain: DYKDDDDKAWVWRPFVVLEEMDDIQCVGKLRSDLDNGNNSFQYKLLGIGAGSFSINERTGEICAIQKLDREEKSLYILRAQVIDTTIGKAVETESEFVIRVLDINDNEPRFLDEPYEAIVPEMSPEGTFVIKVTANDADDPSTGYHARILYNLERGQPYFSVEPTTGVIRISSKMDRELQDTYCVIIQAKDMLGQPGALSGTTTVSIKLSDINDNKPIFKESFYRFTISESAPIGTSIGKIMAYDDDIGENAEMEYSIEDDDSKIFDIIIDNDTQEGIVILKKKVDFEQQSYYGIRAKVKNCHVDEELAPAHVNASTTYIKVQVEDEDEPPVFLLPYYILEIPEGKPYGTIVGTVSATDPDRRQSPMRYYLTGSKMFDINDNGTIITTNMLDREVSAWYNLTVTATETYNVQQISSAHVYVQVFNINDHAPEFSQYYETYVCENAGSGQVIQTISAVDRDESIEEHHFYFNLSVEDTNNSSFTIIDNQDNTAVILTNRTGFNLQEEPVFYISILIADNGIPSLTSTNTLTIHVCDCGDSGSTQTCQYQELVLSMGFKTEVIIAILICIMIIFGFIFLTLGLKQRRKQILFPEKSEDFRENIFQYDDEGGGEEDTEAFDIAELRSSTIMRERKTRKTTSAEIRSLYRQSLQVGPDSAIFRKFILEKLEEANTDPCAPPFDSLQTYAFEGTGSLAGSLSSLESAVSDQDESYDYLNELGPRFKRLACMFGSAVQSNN
Test: FACS, transfected 293T
From the text: The experiment included assaying the anti-CDH19 antibodies against mouse Cadherin19 to determine suitability for binning on these human/mouse chimeras.

- binding result: binds
B1: anti-CDH19 antibody 2G6 (Ab ID 13588) (antibody, human IgG1, lambda, V domains shown)
VH: QVQLVESGGGVVQPGRSLRLSCAASGFTFSSYGMHWVRQAPGKGLEWVAFIWYDGSNKYYADSVKDRFTISRDNSKNTLYLQMKSLRAEDTAVYYCARRAGIIGTIGYYYGMDVWGQGTTVTVSS
VL: SYELTQPPSVSVSPGQTASITCSGDRLGEKYTCWYQQRPGQSPLLVIYQDTKRPSGIPERFSGSNSGNTATLTISGTQAMDEADYYCQAWDSSTVVFGGGTKLTVLG
